Measured values: patent publication US20060024722A1

Molecular target: oncofetal fibronectin (human) (UniProt P02751)
Assay: lateral flow sandwich assay (FDC-6 latex conjugate / immobilised goat anti-fibronectin), TLiIQ reflectance reader

Chain of UniProt P02751 (P02751 32-2477): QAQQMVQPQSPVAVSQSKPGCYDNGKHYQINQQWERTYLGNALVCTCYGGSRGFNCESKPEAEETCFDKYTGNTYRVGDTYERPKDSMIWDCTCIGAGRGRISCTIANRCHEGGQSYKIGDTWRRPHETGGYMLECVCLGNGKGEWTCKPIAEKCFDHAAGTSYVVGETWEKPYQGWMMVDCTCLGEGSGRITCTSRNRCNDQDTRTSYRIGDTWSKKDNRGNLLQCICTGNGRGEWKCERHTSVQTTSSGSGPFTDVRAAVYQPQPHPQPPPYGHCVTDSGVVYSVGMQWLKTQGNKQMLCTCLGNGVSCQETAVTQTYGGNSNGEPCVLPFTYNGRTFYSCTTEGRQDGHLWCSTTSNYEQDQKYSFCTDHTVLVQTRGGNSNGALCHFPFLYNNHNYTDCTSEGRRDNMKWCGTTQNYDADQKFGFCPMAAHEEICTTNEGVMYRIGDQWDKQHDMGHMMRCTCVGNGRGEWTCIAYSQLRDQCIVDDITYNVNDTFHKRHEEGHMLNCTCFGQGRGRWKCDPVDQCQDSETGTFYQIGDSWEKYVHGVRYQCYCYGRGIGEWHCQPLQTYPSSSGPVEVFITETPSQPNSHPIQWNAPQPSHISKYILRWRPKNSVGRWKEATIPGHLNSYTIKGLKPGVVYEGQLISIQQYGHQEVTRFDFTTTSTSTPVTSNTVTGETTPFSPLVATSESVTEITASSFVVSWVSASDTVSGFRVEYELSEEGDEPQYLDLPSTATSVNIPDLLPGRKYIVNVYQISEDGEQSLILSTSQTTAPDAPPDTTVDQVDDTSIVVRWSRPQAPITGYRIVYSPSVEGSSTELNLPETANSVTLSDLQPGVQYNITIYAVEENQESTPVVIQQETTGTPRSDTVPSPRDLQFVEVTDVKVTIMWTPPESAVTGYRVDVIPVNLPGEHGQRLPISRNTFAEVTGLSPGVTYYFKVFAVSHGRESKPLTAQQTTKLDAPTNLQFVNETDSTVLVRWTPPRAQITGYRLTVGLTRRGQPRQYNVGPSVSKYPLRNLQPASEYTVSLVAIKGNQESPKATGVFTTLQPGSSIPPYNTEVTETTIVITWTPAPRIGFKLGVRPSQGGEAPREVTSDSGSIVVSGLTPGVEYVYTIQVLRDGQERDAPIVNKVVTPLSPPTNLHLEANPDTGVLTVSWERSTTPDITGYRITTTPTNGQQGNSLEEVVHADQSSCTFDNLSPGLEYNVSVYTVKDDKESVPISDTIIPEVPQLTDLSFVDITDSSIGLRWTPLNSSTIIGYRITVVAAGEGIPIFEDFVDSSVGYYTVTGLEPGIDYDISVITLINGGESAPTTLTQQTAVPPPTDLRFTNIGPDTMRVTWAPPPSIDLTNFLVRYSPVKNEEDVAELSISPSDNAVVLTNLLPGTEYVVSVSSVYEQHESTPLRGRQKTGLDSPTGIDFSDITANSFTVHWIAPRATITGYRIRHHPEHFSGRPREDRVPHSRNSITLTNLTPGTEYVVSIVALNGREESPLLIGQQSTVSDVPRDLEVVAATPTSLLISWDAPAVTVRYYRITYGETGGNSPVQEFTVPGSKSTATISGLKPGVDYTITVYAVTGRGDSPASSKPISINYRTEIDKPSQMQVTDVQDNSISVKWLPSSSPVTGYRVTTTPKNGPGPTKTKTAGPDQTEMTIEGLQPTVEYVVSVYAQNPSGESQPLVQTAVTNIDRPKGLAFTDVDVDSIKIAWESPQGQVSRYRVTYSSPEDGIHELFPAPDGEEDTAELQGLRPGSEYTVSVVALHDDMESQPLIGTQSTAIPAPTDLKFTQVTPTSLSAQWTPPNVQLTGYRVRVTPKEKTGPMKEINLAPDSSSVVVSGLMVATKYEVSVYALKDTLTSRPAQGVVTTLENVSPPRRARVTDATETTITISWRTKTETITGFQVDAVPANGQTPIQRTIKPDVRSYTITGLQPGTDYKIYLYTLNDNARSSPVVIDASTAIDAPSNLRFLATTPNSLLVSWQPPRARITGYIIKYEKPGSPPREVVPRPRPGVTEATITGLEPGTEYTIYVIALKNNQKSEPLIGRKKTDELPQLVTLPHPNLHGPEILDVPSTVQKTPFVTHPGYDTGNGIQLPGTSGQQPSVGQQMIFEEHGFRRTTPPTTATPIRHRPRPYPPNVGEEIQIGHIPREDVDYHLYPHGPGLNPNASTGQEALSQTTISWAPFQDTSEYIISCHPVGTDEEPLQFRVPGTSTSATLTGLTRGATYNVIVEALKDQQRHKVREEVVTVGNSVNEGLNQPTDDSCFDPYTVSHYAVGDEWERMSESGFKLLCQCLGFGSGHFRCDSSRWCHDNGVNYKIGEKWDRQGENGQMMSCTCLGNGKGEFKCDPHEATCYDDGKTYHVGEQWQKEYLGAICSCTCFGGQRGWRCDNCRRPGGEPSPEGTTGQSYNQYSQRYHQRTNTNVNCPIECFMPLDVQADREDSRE

reflectance signal at 50 ng/ml oncofetal fibronectin (reflectance signal): 0.315
Substance: monoclonal antibody FDC-6 produced by hybridoma ATCC HB 9018
